Measured values from the DeepSol protein solubility set.

Test: soluble on expression in E. coli; label from the status in PepcDB or PDB records

Sequence | soluble on expression in E. coli
AAQAEREELAAGRMPGGGPQGAPAAAGGGGVSHRAGSRDCLPPAACFRRRRLARRPGYMRSSTGPGIGFLSPAVGTLFRFPGGVSGEESHHSESRARQCGLDSRGLLVRSPVSKSAAAPTVTSVRGTSAHFGIQLRGGTRLPDRLSWPCGPGSAGWQQEFAAMDSSETLDASWEAACSDGARRVRAAGSLPSAELSSNSCSPGCGPEVPPTPPGSHSAFTSSFSFIRLSLGSAGERGEAEGCPPSREAESHCQSPQEMGAKAASLDGPHEDPRCLSQPFSLLATRVSADLAQAARNSSRPERDMHSLPDMDPGSSSSLDPSLAGCGGDGSSGSGDAHSWDTLLRKWEPVLRDCLLRNRRQMEVISLRLKLQKLQEDAVENDDYDKAETLQQRLEDLEQEKISLHFQLPSRQPALSSFLGHLAAQVQAALRRGATQQASGDDTHTPLRMEPRLLEPTAQDSLHVSITRRDWLLQEKQQLQKEIEALQARMFVLEAKDQQLRREIEEQEQQLQWQGCDLTPLVGQLSLGQLQEVSKALQDTLASAGQIPFHAEPPETIRSLQERIKSLNLSLKEITTKVCMSEKFCSTLRKKVNDIETQLPALLEAKMHAISGNHFWTAKDLTEEIRSLTSEREGLEGLLSKLLVLSSRNVKKLGSVKEDYNRLRREVEHQETAYETSVKENTMKYMETLKNKLCSCKCPLLGKVWEADLEACRLLIQSLQLQEARGSLSVEDERQMDDLEGAAPPIPPRLHSEDKRKTPLKESYILSAELGEKCEDIGKKLLYLEDQLHTAIHSHDEDLIQSLRRELQMVKETLQAMILQLQPAKEAGEREAAASCMTAGVHEAQA | soluble
MGCVSSTSRSTGYYSGYESHEEPRAASRPTNSDDRGYETDSEPSSGNLIPNARSVYSESVLWHGTSMQSKIDLRSKGFDAGRKTGGATAGGNANMFMNLSREAQSETRRHHYLSSSQKEAKDFAMFADTSNPTLVRTIGVRNNLSLITDPRTGGTALMTDQSIPRKFVLGSKSSAPGENAKVFRDEMRAAGHNVSTKQAGELLREVQSDS | not soluble
MHHHHHHSSGVDLGTENLYFQSMPRARPGGNRVTVVLGAQWGDEGKGKVVDLLAQDADIVCRCQGGNNAGHTVVVDSVEYDFHLLPSGIINPNVTAFIGNGVVIHLPGLFEEAEKNVQKGKGLEGWEKRLIISDRAHIVFDFHQAADGIQEQQRQEQAGKNLGTTKKGIGPVYSSKAARSGLRMCDLVSDFDGFSERFKVLANQYKSIYPTLEIDIEGELQKLKGYMEKIKPMVRDGVYFLYEALHGPPKKILVEGANAALLDIDFGTYPFVTSSNCTVGGVCTGLGMPPQNVGEVYGVVKAYTTRVGIGAFPTEQDNEIGELLQTRGREFGVTTGRKRRCGWLDLVLLKYAHMINGFTALALTKLDILDMFTEIKVGVAYKLDGEIIPHIPANQEVLNKVEVQYKTLPGWNTDISNARAFKELPVNAQNYVRFIEDELQIPVKWIGVGKSRESMIQLF | soluble
MSLSDAVNKHPKSPNPQLCAVTLLGNLVATPDIRYRANPATAVTEIVLATSSKWLDKITNKYKEWTSYHHVKVEGELVELALLNANKGDIILLHGYLSNIKPKSTDKSTNHLGIVHANFVQKFEKGYTQAINQIHCSAQLTSKPKLMLTEQNKNITQANIVINQHIYNTDKQAWQTISVERAIHVWGKQAQYLAEHGDIGDELMLEGKLSYTSGVSKDQFIEVKNVHLFKGTLEHHHHHH | soluble
MSCTRRQFITRVGALAAVSGMAGRVVANTLNINGVRYGMVHDESLCIGCTACMDACREVNTVPEGVSRLTIIRSEPQGTFPDVKYRFFRHSCQHCDHAPCVDVCPTGASFRDAASGIVDVNPDLCVGCQYCIAACPYRVRFIHPVSKTADKCDFCRKTNLKAGKQPACVESCPTKALTFGNLDDPNSDISRLLRQKTTYRYKLALGTKPKVYRVPFNYGEVSQ | not soluble
MRGSHHHHHHGMASMTGGQQMGRDLYDDDDKDPMSVIKPDMKIKLRMEGAVNGHPFAIEGVGLGKPFEGKQSMDLKVKEGGPLPFAYDILTTVFCYGNRVFAKYPENIVDYFKQSFPEGYSWERSMNYEDGGICIATNDITLDGDCFIYEIRFDGVNFPANGPVMQKRTVKWEPSTEKLYVRDGVLKGDVNMALLLEGGGHYRCDFKTTYKAKKVVQLPDYHFVDHRIEIKSHDKDYNNVNLHEHAEAHSGLPRQAK | soluble
MSLGDERPDVLLTGLLFYDLVLTGLGKPPTPGEEIWTEGMGVSPGGIANLAVAASRFGLRTSLATVFGDDHYGAYCRGVLAGQEGIDLSLSRTADGWHTPVTVSLAYGHDRALVTHGQDPPYSQDALMGDPPEARTALVHIEAEPHAWLAKAAANGTRIYADVGWDPTQQWSRDLLDQLSLCHAFLPNEAEAMAYTRTDSAMAALGTLTDLVPVAVVTRGGDGAVAVDQTTGEYAEVPALDIDVLDPTGAGDVFGASFVAASLGGWPLAERLRFAVLAAGLSVQRHGGALAAPGWYGVHRWWHSLEDPGLRRAYGFLADRIPADPGPPVRHAPVTPPDATRREGHHHHHH | soluble
MRSPDSDRPVHRMRALREAVSDADSHSRRGGRMIAREWQFALPEKKHKKKYFGNLKAEVIDAGLCCHCAACASICPVNGITAGDAPIDFPNWVKECVDCGACIKVCPRWEYTPKNGLGEYIEVVAARSKRFVGQDGAMVTEFTASALEMGIIERAIFVARDSNWRTRVVTIKTPEQLYDRKITGTKYSYADVLPALKEAVLKSEAVGFVGTPCMVSAVRKMQQAFKKFERVKLAIGLFCTENFYHHDLYKFLLEKANADLRNAVKTDIKKGKFIVEMKDGSKVRIPVKDFEEIIPSGCKVCQDFAAVESDVSVGSVGSPNRFSTVMVRTEVAKQILDYIREKDYAEFGEAKLDIVQKLCDHKMKIHPWPPKKKEEKSEELEHHHHHH | soluble
MQKKYYEDSHQDSYLLGVKEKDEVLLTALMRKIKNHTGDVYEIMGGPLVDFENENNNQIIAFFLKELHKYLKKQHAYYLRIVPNEKTQRVENNGKVVNYDLKNYSSLYFAEGFIYRSFEQVGYGFATPHYEYQKRIEGLNKKTLFQSYSKKTQYSIKKTYEFGITTRNISYDELEMFHENTTKTAKRLGFYDKELSYYQSVYRTFGDNAKFMIAEINLSDYIGHFQEIIRNLKDKIDQMILIDSKREKPTKTRQIKELRSQVEQHEKRIVQAKKLIEQYGKKINLAGALFFIQPQEVSYMFSYTNAEFKNFYGPYRTQADMLEFALKEKVPVYNFYGVSGDRSGHDGVYEFKKGFQGYMVDNMGAFILPINKFRYQFLQTIKKIIRRR | not soluble
SMAPKPGLDFSPFDFAHFGFPSDNSGKERSFQAKPSPKLGRHVYSRPKVDIQKICIGNKNIFTVSDLKPDTQYYFDVFVVNINSNMSTAYVGTFARTKEEAKQKTVELKDGKITDVFVKRKGAKFLRFAPVSSHQKVTFFIHSCLDAVQIQVRRDGKLLLSQNVEGIQQFQLRGKPKAKYLVRLKGNKKGASMLKILATTRPTKQSFPSLPEDTRIKAFDKLRTCSSATVAWLGTQERNKFCIYKKEVDDNYNEDQKKREQNQCLGPDIRKKSEKVLCKYFHSQNLQKAVTTETIKGLQPGKSYLLDVYVIGHGGHSVKYQSKVVKTRKFC | soluble
MGSDKIHHHHHHMTEGLTIGIDVGGTNLRFGVFRGNELLDSTRSEVDLREKCRQAPDPEGAAALVTTLLTEGIADLRRHHPNIARVGIAFPGFIDDDGVLLQSPNIPQLIQFDLQTAVGAACQLPVLVENDANAAGYGEFWEERQEHPELQNLLYVGLGTGVGGGWIHQGRPWRGDHGSAMEIGHIIVVPGGRRCGCGNQGCLEQYASARGVQSTYVELTGTAPDAMVIAQMAGDAHSEAASAFRMAGGYLGQVLAHVVKVTDVAVVRIGGGMSAAWDRFAPAMLQRLDADMIPALRGNVEVKRGNDDDLAGMRGAALLADQEFLHS | not soluble
MGSDKIHHHHHHNKNTLPDSNGTLVPVGSWYLGLSVGVGALKNPLRGQDNIPLYVLPEFRYYGERFSVENLDVSFTLYDAPAYSLELVGQQNMDGLLFPGDNRRLMASFTGMIPIRSRDVVETAVELPPLYPEHKSMSYMAGVAARYFGWFDAQVLALTDVSKVHHGYEINLSLGKQYNWKNINFEAQFGATYKSSKLTEYYYNGEYQELFYQVYNYRADSAINPYIQLSAAYDLGNNYFVSGNVRNIWLDDTIHHSPIFEDTHLLTYFIGIKKLF | not soluble
MGSDKIHHHHHHLTDMLAPRVVARLRGVTKSFDGTTVVRNVDLDFRSGEVHVLAGENGAGKSTLTKLLAGIHQPDHGTVEINGQMGPFDVKSSRTAGVTLVHQELLIAPNLTVADNLAMGQENRNRFRGLDRTATLENARAQLAHIGATFPVTMRAEELTVADHQQIEIARALAQKPKILILDEPTSALSSAETERLLRIVDELRRNGTSVIYITHRMEEIEALADIVSIMRDGSLVETMPKAEATPDAIVLRMVGRKIDSLFTAERPEPGRVVLRVEQLTNGKDIGPIDLDVRAGEVVGIGGLIGSGRSEFVRLIFGADRASSGTVSVDGSPVNVTGPGSAVRAGIALLPESRKTQGLVLDQSIAANIVLASLGHISSAGVVTPAAVKRVASKAQKRLGIKSASLGQEVTTLSGGNQQKVLFAKWLETKPKVLILDEPTRGVDVGAKAEIYQIINECAHAGVAVLVISSELPELIGLSSRVHVMREGRLVAEIDAQSLTEEAVMNHAFGIAQATQA | not soluble
KHLPEPFRIRVIEPVKRTTRAYREEAIIKSGMNPFLLDSEDVFIDLLTDSGTGAVTQSMQAAMMRGDEAFSGSRSYYALAESVKNIFGYQYTIPTHQGRGAEQIYIPVLIKKREQEKGLDRSKMVAFSNYFFDTTQGHSQINGCTVRNVYIKEAFDTGVRYDFKGNFDLEGLERGIEEVGPNNVPYIVATITSNSAGGQPVSLANLKAMYSIAKKYDIPVVMDSARFAENAYFIKQREAEYKDWTIEQITRETYKYADMLAMSAKKDAMVPMGGLLCMKDDSFFDVYTECRTLCVVQEGFPTYGGLEGGAMERLAVGLYDGMNLDWLAYRIAQVQYLVDGLEEIGVVCQQAGGHAAFVDAGKLLPHIPADQFPAQALACELYKVAGIRAVEIGSFLLGRDPKTGKQLPCPAELLRLTIPRATYTQTHMDFIIEAFKHVKENAANIKGLTFTYEPKVLRHFTAKLKEV | soluble
MAIIKSPVFKDISEAEISEMTSAGFLRARKFRKKAIIYHVTDIVHEIGIVASGQVTIEYIDMWGNKAIMSNIAPGQVFAETYALSGEPLMVDAVASETSVVLFLNIRKLMDSQPENVHYKDTILNNLLHISIQKNLTLSNRIFCTSPKTIRDRLLIYLSNESRKAGCEEFSIPFDRQQLADYLNVDRTALSKELGKMRDDGLIEFRKNVFHLLSIC | not soluble
MAKIDIIDNYETLLISVEEIRASLESLHAWLDKDIDWDSQCDWYDFISQHSSQIAILNLIMYRLDSLEVEHRSVIENTMKGK | not soluble
SFAAIASGNPLQLSVEVPNSNGLQHTIVLSRTKPKLYSHITLFILPNVTFPQDYIATVYFKLSPQEEFKLFGYLSSEKPSAIFKVQIPSSKKDAGDTSDGLGEIDMDVDDGSGAADPFTDTNGSSSNNISELIIGISIEPREQGMMKLEEWKASMNAEAQKNNSLILSRPNLGIIRNITTAGQLAQVYPSLTQELAAKIVQHAYNYLSGFLDAQGNVPIKRFDTWWDKFRNRLANDGTFLDEVTKN | soluble
MIAKTDSDIRHVTPSGGNVFADLGFHKQDAEKFYADSLNEIENTLAIKQQLMEEITLWITQNQMKQAEVATVLHISRPRVSDVVNKKCSKFTIDALVNMLSRIGKPVRVMVGP | not soluble
MSLTTSAHKHPYKIVASDLDGTLLAPNHQLSEFSKQTLKQLHDKGFTFIFATGRHHIDVAGIREIAGIPAYMITSNGARVHDQNDQLMYSKNVPQDLVQAIIDVVKHDKQLFVHLYRNDEWMLNKEDEILRDFHEDSGFTYRVFDVNNAPTDGIAKIFFTQEDQDHEHLVQYETLLNQRFGDKLNVAFSTPWCLEVMCAGVSKGDALQAVAESLHLGLENCIAFGDGMNDVEMLSMAGKGLVMGTAHEKVFNALPDNEVIGSNADDAVAHYLHQHLFEGGSHHHHHH | soluble
